Target: full-length N1-CA09-WT, membrane-anchored, C-terminal myc tag (Influenza A virus A/California/07/2009 …, UniProt C7FH46, strain)
Assay: flow cytometry on cells
Conditions: one partner purified

B1: CD6 IgG (antibody, V domains shown)
VH: QVKLQESGGGLVQPKGSLKLSCAASGFTFNTYAMNWVRQAPGKGLEWVARIRSKSNNYATFYADSVKDRFTISRDDSQSMLYLQMHNLKTDDTAMYYCVRPSIYYYASGYLDVWGAGTTVTVSS
VL: QIVLSQSPAILSASPGEKVTMTCRTSSSVSYMHWYQQKPGSSPKPWIYATSNLASGVPFRFSGSGSGTSYSLTISRVEAEDAATYYCQQWNSNPPTFGGGTKLEIK
notes: copies: 2 + 2
binding result: binds

Reference: article PMC8983682 (Nature Communications, 2022)
